Measured values: article PMC11861921

Key:
[1] = target: rat brain synaptosomes (sites that bind 125I-charybdotoxin); experiment: radioligand binding
[2] = target: rat brain synaptosomes (sites that bind 125I-apamin); experiment: radioligand binding; competition with 125I-apamin on rat brain synaptosomes
[3] = target: human Kv1.3 channel (human) (UniProt P22001)
Chain of UniProt P22001 (P22001 whole entry): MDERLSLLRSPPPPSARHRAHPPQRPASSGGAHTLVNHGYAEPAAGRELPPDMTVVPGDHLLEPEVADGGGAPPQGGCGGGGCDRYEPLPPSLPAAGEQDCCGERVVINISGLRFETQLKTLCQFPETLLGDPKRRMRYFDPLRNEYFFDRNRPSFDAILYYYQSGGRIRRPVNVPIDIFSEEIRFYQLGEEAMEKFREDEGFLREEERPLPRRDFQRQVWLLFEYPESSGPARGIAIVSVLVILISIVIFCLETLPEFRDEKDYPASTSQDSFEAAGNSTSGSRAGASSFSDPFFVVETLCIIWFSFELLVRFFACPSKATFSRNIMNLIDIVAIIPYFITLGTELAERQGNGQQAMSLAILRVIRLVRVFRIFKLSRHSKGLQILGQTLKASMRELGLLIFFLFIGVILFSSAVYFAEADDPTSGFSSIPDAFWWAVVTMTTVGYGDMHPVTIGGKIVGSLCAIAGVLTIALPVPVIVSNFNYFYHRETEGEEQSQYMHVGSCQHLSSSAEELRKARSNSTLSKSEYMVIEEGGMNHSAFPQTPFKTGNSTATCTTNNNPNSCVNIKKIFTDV

Row | Substance | IC50 [1] | IC50 [2] | decrease in Kv1.3 maximum current, patch-clamp (voltage clamp, whole-cell configuration) on HEK293T cells [3]
1 | MTX1 (peptide) | 5 nM | 1.7 nM | –
2 | Tb11a (peptide) | – | – | 50%
